Test results reported in patent US20260021168A1.

Assays:
[1] = target: Thymoglobulin (Genzyme), rabbit anti-thymocyte globulin; experiment: cell-based or functional assay
[2] = target: ATGAM (equine Anti-thymocyte Globulin); experiment: cell-based or functional assay
[3] = target: alemtuzumab (Campath, anti-CD52, Genzyme), intact IgG; experiment: cell-based or functional assay
[4] = target: endogenous human serum IgG

“imlifidase (IdeS, Immunoglobulin G-degrading enzyme of S. pyogenes)” showed a cleavage of 50 µg/mL rATG in sera of imlifidase-treated subjects, SDS-PAGE and Western blot [1] of 0.5 µg/mL, a cytotoxic activity of ATGAM in whole blood after imlifidase treatment, CD3+ flow cytometry [2] greater than 30 µg/mL and a block of the cytotoxic effect of alemtuzumab on CD3-positive T-cells in whole blood, flow cytometry [3] of 1.9 µg/mL. For the same molecule, the imlifidase concentration sufficient for cleavage in whole blood (SDS-PAGE of plasma, CD3+ flow cytometry) [3] was 4 µg/mL.

B1: imlifidase (IdeS, Immunoglobulin G-degrading enzyme of S. pyogenes) (protein)
chain: DSFSANQEIRYSEVTPYHVTSVWTKGVTPPANFTQGEDVFHAPYVANQGWYDITKTFNGKDDLLCGAATAGNMLHWWFDQNKDQIKRYLEEHPEKQKINFNGEQMFDVKEAIDTKNHQLDSKLFEYFKEKAFPYLSTKHLGVFPDHVIDMFINGYRLSLTNHGPTPVKEGSKDPRGGIFDAVFTRGDQSKLLTSRHDFKEKNLKEISDLIKKELTEGKALGLSHTYANVRINHVINLWGADFDSNGNLKAIYVTDSDSNASIGMKKYFVGVNSAGKVAISAKEIKEDNIGAQVLGLFTLSTGQDSWNQTN
In the case of B1, the “imlifidase concentration sufficient for cleavage in whole blood (SDS-PAGE of plasma)” value [4] is reported as “a concentration of approx. 4 µg/mL imlifidase is sufficient to cleave all serum IgG and 100 µg/mL alemtuzumab”.
